# Measured values: patent US7419813B2, “Fructosyl peptide oxidase” (Kikkoman Corporation, priority 2001, dated 2008)
# Assays:
# Type in all cases: biochemical
# [1] = Enzyme activity assay (hydrogen peroxide, POD-4-AA colour at 510 nm), fructosyl valyl histidine substrate; conditions: for Substrate specificity (% relative activity) FVH / Activity per medium: crude enzyme sample; for action on fructosyl valyl histidine and ε-fructosyl lysine (in words): crude enzyme samples of Tables 1 and 2
# Excerpt: Enzyme activities of the oxidase of the invention and the oxidase of the invention that have less action on ε-fructosyl lysine (hereinafter, the term “the oxidases of the invention” may comprise both the oxidase of the invention and the oxidase of the invention that have less action on ε-fructosyl lysine) may principally be determined by determining the amount of α-ketoaldehyde, peptide, hydrogen peroxide or the like which are produced through enzyme reaction or by determining the amount of oxygen consumed by the enzyme reaction. Hereinafter, a method for determining the amount of hydrogen peroxide will be described as one example. Unless otherwise noted, fructosyl valyl histidine is used as a substrate for determining the activities of the oxidases of the invention. Titer of the enzyme is defined such that an amount of enzyme for producing 1 μmol hydrogen peroxide per minute is 1U as determined using a fructosyl valyl histidine substrate. 1.0 kU of peroxidase (Toyobo Co., Ltd, TYPE III) and 100 mg of 4-aminoantipyrine (Tokyo Kasei Kogyo Co., Ltd.) are dissolved in 0.1 M potassium phosphate buffer (pH 8.0) to a constant volume of 1L. 25 ml of a commercially available 2% solution (available from Nacalai Tesque, Inc.) is dissolved in ion exchange water to a constant volume of 100 ml. 624 mg of fructosyl valyl histidine is dissolved in ion exchange water to a constant volume of 10 ml. Alternatively, fructosyl glycine or ε-fructosyl lysine of 357 mg or 462 mg, respectively, may be dissolved in ion exchange water to a constant volume of 10 ml to be used as a substrate. Fructosyl valine histidine was prepared as described in Japanese Patent Application Laid-Open (kohyo) No. 2001-95598. Fructosyl glycine and ε-fructosyl lysine were prepared according to a method of Horiuchi et al. (Agric. Biol. Chem., 53, 103-110, 1989; Agric. Biol. Chem., 55, 333-338, 1991). 2.7 ml of Reagent 1, 100 μl of Reagent 2 and 100 μl of enzyme solution are mixed and pre-heated at 30° C. for 5 minutes. Then, 100 μl of Reagent 3 is added and thoroughly mixed to determine absorbance at 510 nm using a spectrophotometer (U-[…], Hitachi, Ltd.). Measurement values indicate changes in the absorbance per minute at 510 nm after 1 to 3 minutes. A control solution was prepared in the same manner as described above except 100 μl ion exchange water was added instead of 100 μl Reagent 3. A standard solution of hydrogen peroxide and ion exchange water were used instead of Reagent 3 and the enzyme solution, respectively, to prepare a graph showing relationship with respect to the level of color. Referring to this graph, micromole of hydrogen peroxide produced per minute at 30° C. is calculated and used as the unit for expressing the activity of the enzyme solution. The presence of action on ε-fructosyl lysine can be determined in the same manner by using Reagent 3 (substrate solution) containing ε-fructosyl lysine substrate instead of fructosyl valyl histidine substrate.
# [2] = Enzyme activity assay, fructosyl glycine substrate; conditions: for Substrate specificity (% relative activity) FG: crude enzyme sample; for relative activity for fructosyl glycine: purified oxidase, compared to 100% activity for fructosyl valyl histidine
# Excerpt: Enzyme activities of the oxidase of the invention and the oxidase of the invention that have less action on ε-fructosyl lysine (hereinafter, the term “the oxidases of the invention” may comprise both the oxidase of the invention and the oxidase of the invention that have less action on ε-fructosyl lysine) may principally be determined by determining the amount of α-ketoaldehyde, peptide, hydrogen peroxide or the like which are produced through enzyme reaction or by determining the amount of oxygen consumed by the enzyme reaction. Hereinafter, a method for determining the amount of hydrogen peroxide will be described as one example. Unless otherwise noted, fructosyl valyl histidine is used as a substrate for determining the activities of the oxidases of the invention. Titer of the enzyme is defined such that an amount of enzyme for producing 1 μmol hydrogen peroxide per minute is 1U as determined using a fructosyl valyl histidine substrate. 624 mg of fructosyl valyl histidine is dissolved in ion exchange water to a constant volume of 10 ml. Alternatively, fructosyl glycine or ε-fructosyl lysine of 357 mg or 462 mg, respectively, may be dissolved in ion exchange water to a constant volume of 10 ml to be used as a substrate. Fructosyl valine histidine was prepared as described in Japanese Patent Application Laid-Open (kohyo) No. 2001-95598. Fructosyl glycine and ε-fructosyl lysine were prepared according to a method of Horiuchi et al. (Agric. Biol. Chem., 53, 103-110, 1989; Agric. Biol. Chem., 55, 333-338, 1991). 2.7 ml of Reagent 1, 100 μl of Reagent 2 and 100 μl of enzyme solution are mixed and pre-heated at 30° C. for 5 minutes. Then, 100 μl of Reagent 3 is added and thoroughly mixed to determine absorbance at 510 nm using a spectrophotometer (U-[…], Hitachi, Ltd.). Measurement values indicate changes in the absorbance per minute at 510 nm after 1 to 3 minutes. A control solution was prepared in the same manner as described above except 100 μl ion exchange water was added instead of 100 μl Reagent 3. A standard solution of hydrogen peroxide and ion exchange water were used instead of Reagent 3 and the enzyme solution, respectively, to prepare a graph showing relationship with respect to the level of color. Referring to this graph, micromole of hydrogen peroxide produced per minute at 30° C. is calculated and used as the unit for expressing the activity of the enzyme solution. The presence of action on ε-fructosyl lysine can be determined in the same manner by using Reagent 3 (substrate solution) containing ε-fructosyl lysine substrate instead of fructosyl valyl histidine substrate.
# [3] = Reaction assay in 96-well plate with fructosyl glycine (control substrate); conditions: purified enzyme; control substrate set to 100%
# Description: Fructosyl glycine (4.5 mg) was dissolved in 1 ml of water.
# Developer solution consisted of the following materials:
# • (a) Enzyme purified from Achaetomiella virescens ATCC 32393 • (b) Enzyme purified from Eupenicillium terrenum ATCC 18547 • (c) Enzyme purified from Coniochaeta sp. NISL 9330 (FERM BP-7798) • (d) 20 mM phosphate buffer, pH 8.0 (2) Reaction Assay
# Reaction substrate (D: a, b) (20 μl), developer solution (E) (20 μl) and the inventive oxidase (F: a-d) (10 μl) were mixed in 96-well assay plates for reaction. Each plate was monitored at 510 nm using a plate reader (Immuno Mini NJ-2300, available from Nalge Nunc International K. K.) for 70 minutes. The results are shown as % relative activity when compared to 100% activity for fructosyl glycine (Table 4). […] It was confirmed that all of the inventive oxidases were reactive with the protease-digested products of α-glycated hexapeptide.
# [4] = relative to activity for ε-fructosyl lysine (100%)
# [5] = strain cultured on enzyme inducible medium 1 at 30° C. for 4 days, Tables 1 and 2
Molecule,"Substrate specificity (% relative activity) FVH [1, 4] [%]","Activity per medium [1, 5] [U/L]",action on fructosyl valyl histidine and ε-fructosyl lysine (in words) [1],"Substrate specificity (% relative activity) FG [2, 4] [%]",relative activity for fructosyl glycine [2] [%],% relative activity on fructosyl glycine [3] [%],"Activity per medium ([1]; Eupenicillium strains on enzyme induction media 1 at 30° C. for 4 days, Table 3) [U/L]",Substrate specificity (% relative activity) FVH ([1]; reference substrate set to 100%) [%],Substrate specificity (% relative activity) FG ([2]; relative to activity for fructosyl valyl histidine (100%)) [%]
"Coniochaeta sp. NISL 9330: fructosyl peptide oxidase produced by Coniochaeta sp. NISL 9330 (FERM BP-7798) with less action on ε-fructosyl lysine; amino acid sequence SEQ ID NO: 1 (protein, listed as Coniochaeta sp.) MTSNRADTRVIVVGGGGTIGSSTALHLVRSGYAPANITVLDTFEIPSAQSAGHDLNKIMGIRLRNKVDLQMSLEARQMWKEDELFQPFFHNTGRMDCEHTPEGIEDLKKQYQALHDAGAGLEKTHAWLDNEDEILSKMPLLQRDQIQGWKAIWSQDGGWLAAAKAINAIGQFLKERGVKFGFGGAGSFKQPLFDDEGTTCIGVETADGTKYYADKVVLAAGAWSPTLVDLEDQCCSKAWVYAHIQLTPEEAAEYKGVPVVYNGEFGFFFEPNEFGVIKVCDEFPGFSRFKEHQPYGAPSPKHISVPRSHAKHPTDTYPDASEVSIKKAIATFLPRFQDKELFNRALCWCTDTADAALLMCEHPKWKNFILATGDSGHSFKILPNVGKHVVELIEGRLPEEMAYQWRWRPGGDALKSRRAAPPKDLADMPGWKHDPKL",165,70.1,acted well on fructosyl valyl histidine but less on ε-fructosyl lysine,65,39,100,–,–,–
"Eupenicillium terrenum ATCC 18547: fructosyl peptide oxidase produced by Eupenicillium terrenum ATCC 18547 with less action on ε-fructosyl lysine; amino acid sequence SEQ ID NO: 3 (protein, listed as Eupenicillium terrenum) MAHSRASTKVVVVGGGGTIGSSTALHLIRSGYTPSNITVLDVYKTPSLQSAGHDLNKIMGIRLRNGPDLQLSLESLDMWQNDELFKPFFHQVGMIDCSSSKEGIENLRRKYQTLLDAGIGLEKTNVWLESEDEILAKAPNFTREQVKGWKGLFCTDGGWLAAAKAINAIGIFLQDKGVKFGFGGAGTFQQPLFAADGKTCIGLETTDGTKYFADKVVLAAGAWSPTLVDLEDQCVSKAWVFAHIQLTPKEADAYKNVPVVYDGEYGFFFEPNEYGVIKVCDEFPGFSRFKLHQPYGAASPKMISVPRSHAKHPTDTYPDASEVTIRKAIARFLPEFKDKELFNRTMCWCTDTADANLLICEHPKWKNFILATGDSGHSFKLLPNIGKHVVELLEGSLSQEMAGAWRWRPGGDALRSRRGAPAKDLAEMPGWKHDAHL",1023,2.8,acted well on fructosyl valyl histidine but less on ε-fructosyl lysine,1862,182,100,2.8,100,182
